Experimental data as given in patent US10801046B2, “Methods and materials for biosynthesizing multifunctional, multivariate molecules via carbon chain modification” (INVISTA NORTH AMERICA S.A.R.L., priority 2016, dated 2020).

B1: SEQ ID NO: 182: Firmicutes bacterium CAG:449 thioesterase (protein)
chain: MNYYQKELVLQEKDFINDELSPYSILNYFQDIAGIHADKIGLSHEELIKNDLVWVVLRNKYEIIKMPSINQKVILKTWPHQKGKIDFDREYAIYDENNNLLIKGLSKWILMNYKTRRISMFNNIKYSFECLEETNFENKFNKIEDFDINNFSFIETTTSENDLDINGHVNNASYARIVLNNIDFDITINHFEINYIKEIKANQKLKIYYLKKDNTYYIKAFNNEEVIFVLIVY
modifications: Firmicutes bacterium CAG:449
notes: Firmicutes bacterium CAG:449 thioesterase
B2: SEQ ID NO: 215: Schizopora paradoxa carboxylate reductase (protein, listed as Schizopora paradoxa)
chain: MASTLLQDVSPAPPLMISPLEIPLPEPVDFSKQAVEVPGTRRPGQTGHYQNAVWGFKAFPEEGPVYTLPDVFELGLSLEKNGQTSNKPFLGHRPVISAEPLKFASDYVWSTYAEADERRQNVGSALEKYFRDGTLGGGEYQTVGIWSQNRAEWQIVELACHAYGKVSVSLYDTLGKDSVEYIIEHAHLTVIFVTSQHIPLLLAMASKVPMLKLIVSVDELSSEAKRIMGIWSRTANVQVMELSELEQFGKANRLNMARPIGKSLATICYTSGTTSGPKGVLLTHSNLVSSVKSNLRASHFGEKGGIMMSYLPLAHIYERITELCTMALGGQIGFFTGDPLRLLEDASILKPNFFPSVPRVLNRVYQSAMLAGQTPGLKGYLFRTAMDAKLKKLHETGDNTHMLWDRLVFRKIQALLGGNVELVSCGSAPISVDVMDFLKIAFSCDVIEGYGMTENCGTCTRCWPNDPSSSGTVGAPQPCNEIKLVDVPSMNYTSNDKPNPRGEVCLRGNNCFSTYYKDEKNTRETVDEEGWLHTGDVGEIDSAGRLKIIDRIKNIMKLAQGEYVALEKIENVYGLHPLVAQLYVHGESLQDHLVGVIVPDPTQFAILCNSIRGTKIGANDSAELATAARDPAVAQAVLREITHEAKKAALKGFEMIKKIHLTTVPFSTENGLLTPTFKVRRKDCSIYFKEELAALYAQPTSMLK
B3: SEQ ID NO: 91: Cryptobacterium curtum thioesterase (protein)
chain: MTISASLFLEKDYRLRTGDFDRYRRLHPTAVLDLFQDIGGLQAEMMGIGYDAMAAQDVFWAVVRTAYQVEHTPAEHEVVKVSTWPHSPSRYSFQRDYALRSTDGSLLVRGTSEWVLMDMNTRSLTSVLDYYHGSLDFIDERMFAKKLRKIRDFTEEGSGLSITPRYSDVDQNGHVNNARYASFVLDALDPSAAGSIASFQIDFRHEVIEGTPLVVFTQVEGKDIQAKGLDSNGEIKFACKITAQA
modifications: Cryptobacterium curtum (strain ATCC 700683 / DSM 15641 / 12-3)
notes: Cryptobacterium curtum thioesterase
B4: SEQ ID NO: 185: Granulicatella elegans ATCC 700633 thioesterase (protein)
chain: MTVDVICQIERTILPYECDWKENLLLSQALGMMMLASRKQQQQLQNPNLIYEKGYTWIVIQHEIEIQRMPKVDEEVIIETQAISYNKFFTYREYRILSKEREELFKCITTFAMLDMKARKIVSIDEEVVLEYPLSIGKEMRKATRIPKKDFSDATTGEYKIRINDIDANLHVNNARYFDFAFSELGMEFIEDHQLKQVVIKYEKEVLPESTISCSTLWEENTLESQERRQTYHLISQDGNRCANIQMKWEEIV
modifications: Granulicatella elegans ATCC 700633
notes: Granulicatella elegans ATCC 700633 thioesterase
B5: SEQ ID NO: 184: [Clostridium] ultunense Esp thioesterase (protein)
chain: MKATPLYIKDYKVEINHVDFKGDLKLSSLFTYCQDIAGLHAENLGMGREVLYTQHRVIWVLVRVRVDIIKYPKWKDILTLETWPQEPSRMGFDRDFLIKDKKGNILAKAVSTWVVIDVESRKLVRTKSVYTGYPLVVEKRAIDCKLGNLKSSGELETAYERTVRYSDIDVNEHLNNAKYLDFIMDSFSFEEHRRFNVKSVEISYSNEALLGETIKIYEDRSRIDSNIIYMEGIREGKDLVFKSQIEIEEK
modifications: Clostridium ultunense Esp
notes: [Clostridium] ultunense Esp thioesterase
B6: SEQ ID NO: 187: Eggerthella sp. CAG:1427 thioesterase (protein)
chain: MTIGYEQTYQLRTGDFDRYAHLLPSSILDVFQDVAGVNAEQVPGMTWKELTDAGLFWVVTRIKYEVIETPHLHEQVIARTWPLAPTRLGFQREYTMRKLDGTPLVKCSSDWILMDYKTRSFASARDFYNGPQDFSEEKVFEKKLRKIKTFEPEDTGETFQVHFVDIDINGHVNNSKYPNFVMNSLDLGEDETIKTFQIDYRHELRAGSTVRIHSKRDGNVITSMGISTEGDTAGECMFATQIELA
modifications: Eggerthella sp. CAG:1427
notes: Eggerthella sp; CAG:1427 thioesterase
B7: SEQ ID NO: 183: Clostridium sp. CAG: 798 thioesterase (protein)
chain: MAIIENKYHIGIKYVDKDRLLSLRGIILLFEDIACRHSDMVGYGINDVTKTHFSWVLLNWKIKVLSRINYGSIVTVKTWSRETSKLYTYRDFEIYDENNNLICIASSKWVLLSTETGHIIHITEEIKNAYLAENKTVFNESDLHKIVEPDNAEKTFSFTVRRRDIDINNHMNNLYYLDYALEALPEEVYSKFFNNVEIMYKYSAKLGETINCFYKEEEDGYYVMMKSATDNILHALVKLY
modifications: Clostridium sp. CAG:798
notes: Clostridium sp; CAG: 798 thioesterase
B8: SEQ ID NO: 88: Clostridium sulfidigenes thioesterase (protein)
chain: MELNYKEQFTIKFHEGDFMGNVKLFTIMDYVQQVSEGHSQILGVDFQSMMNKGLFWVVSRVEITMERYPKVGEDITVETCLGGREKVFMKRRFKIKDKDGQVIGRVLIYYLIVDIETRLPQKPSMCPVDININVGDVIDNKLNKIKMPGEAIETVNRKLYYNDIDINNHVNNAKYISFIEDFFSLDWHRVKKISYMQLNFIKEIKFDDSLIMNKFIEDKESNSFCINGISEISEQEFFQCRLKF
modifications: Clostridium sulfidigenes
notes: Clostridium sulfidigenes thioesterase
B9: SEQ ID NO: 95: Aerococcus viridans ATCC 11563 thioesterase (protein)
chain: MINIRHYQGGKRMGLLYQESVKVRHYHCNALGEMTLPAILDIMLIASNNQEATIPEAKEGFRQEGWAWIITQNQIDINRLPRYDEDIIAETEATTYNKFFSKRHYALKTRDGLVLAQAETTFALIDLNQRSIVRIPEIVAEWYQVEKEERPSRRKRLNKEIAVESKLDRFEVKFLDIDLNNHVNNTIYLRWITNSLGMEWFEKYTPTSFTVAYEKEMYLHQEGAVHSDISTVSEDLKSGDTFNSQHVIDSEDKAHCLTEITWQVK
modifications: Aerococcus viridans ATCC 11563 = CCUG 4311
notes: Aerococcus viridans ATCC 11563 thioesterase

Columns and labels:
heptanedioyl-ACP = experiment: Cell lysate in vitro thioesterase screen (DTNB, absorbance at 410 nm) on heptanedioyl-ACP; type: biochemical; settings: 0.33 mM acyl-ACP substrate, 30° C., 30 min
[1] = In vivo carboxylate reductase screening, substrate consumption by LC-MS, monomethyl heptanedioate; type: cell-based, Escherichia coli; settings: 541 enzymes screened in vivo
Protocol: To screen carboxylate reductases in vivo, […] T7- pUC expression vectors was co-transformed into T7 Express lysY/Iq with the phosphopantetheinyl transferase sfp from Bacillus subtilis on a T7-pCDF expression vector. Biological duplicates of the resulting strains were incubated in 0.5 mL of terrific broth containing either 1 g/L heptanedioate or 1 g/L monomethyl heptanedioate and supplemented with 0.4 mM IPTG in 96-well deep well plates. The plates were incubated for 30 h at 30° C. in a shaking incubator. The cells were then pelleted, and culture supernatants from the same strains in media containing either heptanedioate or monomethyl heptanedioate were combined. The combined supernatants were analyzed by LC-MS to determine the concentration of heptanedioate and monomethyl heptanedioate. Carboxylate reductase activity on heptanedioate or monomethyl heptanedioate was reflected by consumption of the respective substrate in the medium.

[2] = test system: heptanedioyl-ACP methyl ester; experiment: Cell lysate in vitro thioesterase screen (DTNB, absorbance at 410 nm) on heptanedioyl-ACP methyl ester; type: biochemical; settings: 0.33 mM acyl-ACP substrate, 30° C., 30 min

Molecule | activity toward heptanedioyl-ACP (hydrolysis) (heptanedioyl-ACP) | monomethyl heptanedioate activity [1] | activity toward heptanedioyl-ACP methyl ester (hydrolysis) [2]
B1 | notable for their activity toward heptanedioyl-ACP | – | –
B2 | – | most monomethyl heptanedioate activity | –
B3 | notable for their activity toward heptanedioyl-ACP | – | notable for their activity toward heptanedioyl-ACP methyl ester
B4 | notable for their activity toward heptanedioyl-ACP | – | –
B5 | notable for their activity toward heptanedioyl-ACP | – | –
B6 | notable for their activity toward heptanedioyl-ACP | – | –
B7 | notable for their activity toward heptanedioyl-ACP | – | –
B8 | notable for their activity toward heptanedioyl-ACP | – | notable for their activity toward heptanedioyl-ACP methyl ester
B9 | notable for their activity toward heptanedioyl-ACP | – | –
